# Assay results published in publication PMC7337384.
# Target: RaTG13 S-protein receptor-binding domain fused to the Fc domain of human IgG1 (bat coronavirus RaTG13)
# Assay: SPR
substance,measurement,value
soluble monomeric human ACE2-NN (enzymatically inactive human ACE2 lacking its active-site histidines) (domain or fragment),Kd,> 35 µM
